Here are results for 3 substances from patent US20090098108A1.

Series [1] has as its target GLP-1 receptor on Rinm cells. As to the kind of experiment: cell-based or functional assay.
For series [2], the target named is wt GLP-1 mimetibody construct (GLP-1 MMB), IgG1 scaffold (UniProt P01275).
The next series addresses GLP-1 peptide (UniProt P01275).

wt GLP-1 mimetibody construct (GLP-1 MMB), IgG1 scaffold, sequence (P01275 whole entry, looked up): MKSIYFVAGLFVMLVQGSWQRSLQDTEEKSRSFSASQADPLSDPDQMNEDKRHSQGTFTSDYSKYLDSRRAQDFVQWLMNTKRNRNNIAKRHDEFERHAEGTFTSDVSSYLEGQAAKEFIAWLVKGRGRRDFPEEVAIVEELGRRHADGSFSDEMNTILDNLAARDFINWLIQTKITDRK
GLP-1 peptide, sequence (P01275 98-127): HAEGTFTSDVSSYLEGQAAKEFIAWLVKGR

“wt GLP-1 mimetibody construct (GLP-1 MMB), IgG1 scaffold (from UniProt P01275 98-128) (Fc fusion)” returned a concentration dependent cAMP activity, EC50 (Rinm cells) in series [1] of 11 nM.
In the case of DPP-IV (R&D Systems), the “DPP-IV cleavage assay (intact MMB by GLP-1 Active ELISA)” value in series [2] is listed as “The GLP-1 MMB was significantly more resistant to cleavage by DPP-IV, relative to the GLP-1 peptide”. Further, the “DPP-IV cleavage assay (intact peptide by GLP-1 Active ELISA)” value with GLP-1 peptide was “The GLP-1 MMB was significantly more resistant to cleavage by DPP-IV, relative to the GLP-1 peptide”.
The substance “GLP-1 peptide (from UniProt P01275 98-127)” came in with a concentration dependent cAMP activity, EC50 (Rinm cells) in series [1] of 0.4 nM.
